Results from US20070264678A1.

Legend:
[1] = target: PTK labeled tracer F-ADE(pY)LIPQQS; assay: binding curves as in Example 2 (FP), antibody at several labeling ratios
[2] = target: PTK labeled tracer F-ADE(pY)LIPQQS; assay: fluorescence polarization, direct binding curve: labeled antibody 10 nM to 9.8 pM against 1 nM tracer

fold variation of affinity for the tracer upon labeling [1] [fold] | EC50 [2] [nM] | Substance
< 2 |  | Anti p-Tyr antibody (anti-pY20) labeled with CS124-DTPA-Phe-NCS*Tb
 | 1 | Tb-chelate labeled PY72 (anti-phosphotyrosine) IgG antibody
